# Reference: US20190062438A1 (CSL, published 2019)
# Changes are numbered by the printed parent chain.
# T1: human CD131 (human, UniProt P32927 17-897)
# T1 sequence: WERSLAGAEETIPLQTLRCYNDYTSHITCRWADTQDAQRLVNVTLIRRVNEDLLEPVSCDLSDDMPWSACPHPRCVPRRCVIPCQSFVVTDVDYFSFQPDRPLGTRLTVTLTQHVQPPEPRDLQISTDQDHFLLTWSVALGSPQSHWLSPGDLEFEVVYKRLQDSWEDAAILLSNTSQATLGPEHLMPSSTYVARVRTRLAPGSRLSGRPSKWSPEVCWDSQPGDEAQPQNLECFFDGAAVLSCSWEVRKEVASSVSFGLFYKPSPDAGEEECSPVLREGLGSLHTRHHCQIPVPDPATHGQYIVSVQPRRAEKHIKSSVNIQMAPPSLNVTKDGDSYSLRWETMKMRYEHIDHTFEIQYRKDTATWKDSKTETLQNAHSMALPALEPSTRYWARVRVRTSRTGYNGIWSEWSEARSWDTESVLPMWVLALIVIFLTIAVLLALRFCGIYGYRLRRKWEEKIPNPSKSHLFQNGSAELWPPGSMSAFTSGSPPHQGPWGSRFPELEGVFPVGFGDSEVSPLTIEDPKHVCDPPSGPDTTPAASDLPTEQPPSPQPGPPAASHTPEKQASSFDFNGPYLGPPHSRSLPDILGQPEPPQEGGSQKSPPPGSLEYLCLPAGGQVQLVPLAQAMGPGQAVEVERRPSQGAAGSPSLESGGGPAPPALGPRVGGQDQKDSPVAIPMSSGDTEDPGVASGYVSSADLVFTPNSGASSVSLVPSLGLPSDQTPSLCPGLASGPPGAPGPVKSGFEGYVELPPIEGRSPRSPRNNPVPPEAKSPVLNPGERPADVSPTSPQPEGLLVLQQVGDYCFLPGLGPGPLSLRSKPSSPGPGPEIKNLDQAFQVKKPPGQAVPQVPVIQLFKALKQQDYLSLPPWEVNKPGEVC
# B1: 9A2-VR20 (antibody, V domains shown)
# VH: EVQLLESGGGLVQPGGSLRLSCAASGFTFNHYRVHWVRQAPGKGLEWVSSIRSSGGFTYYADSVKGRFTISRDNSKNTLYLQMNSLRAEDTAVYYCARFYDSFFDIWGQGTMVTVSS
# VL: DIQMTQSPSSVSASVGDRVTITCRASQGISSWLAWYQQKPGKAPKLLIYAASSLQSGVPSRFSGSGSGTDFTLTISSLQPEDFATYYCQQANSFPITFGQGTRLEIKR
# B2: 9A2-VR40 (antibody, V domains shown)
# VH: B1 VH with N30S, R33H, V34M, H35L, R52N, S53G, S54Y, G56I, F57Q
# VL: B1 VL
# B3: 9A2-VR27 (antibody, V domains shown)
# VH: B1 VH with N30T
# VL: B1 VL
# B4: 9A2-VR42 (antibody, V domains shown)
# VH: B1 VH with N30S, R33H, V34M, H35L, R52G, S53G, S54D, G55I, G56R, F57Q
# VL: B1 VL
# B5: 9A2-VR1 (antibody, V domains shown)
# VH: B1 VH with N30S, R33H, V34M, H35L
# VL: B1 VL with S30R, S31P, W32F, L33M
# B6: 9A2-VR47 (antibody, V domains shown)
# VH: B1 VH with N30S, R33H, V34M, H35L, D101S, S102D, F103H, D105S, I106P
# VL: B1 VL
# B7: 9A2-VR44 (antibody, V domains shown)
# VH: B1 VH with N30S, R33H, V34M, H35L, F103H
# VL: B1 VL
# B8: 9A2-VR21 (antibody, V domains shown)
# VH: B1 VH with N30M
# VL: B1 VL
# B9: 9A2-VR38 (antibody, V domains shown)
# VH: B1 VH with N30S, R33H, V34M, H35L, R52N, S53G, S54M, G56A, F57T
# VL: B1 VL
# B10: 9A2-VR26 (antibody, V domains shown)
# VH: B1 VH with N30I
# VL: B1 VL
# B11: 9A2-VR49 (antibody, V domains shown)
# VH: B1 VH with N30S, R33H, V34M, H35L, D101S, S102D, F103H, D105N, I106P
# VL: B1 VL
# B12: 9A2-VR34 (antibody, V domains shown)
# VH: B1 VH with N30S, R33H, V34M, H35L, R52S, S53G, G55H, G56F, F57P
# VL: B1 VL
# B13: 9A2-VR28 (antibody, V domains shown)
# VH: B1 VH with N30V
# VL: B1 VL
# B14: 9A2-VR45 (antibody, V domains shown)
# VH: B1 VH with N30S, R33H, V34M, H35L, D101S, S102D, F103N
# VL: B1 VL
# B15: 9A2-VR32 (antibody, V domains shown)
# VH: B1 VH with N30S, R33H, V34M, H35L, R52S, S53G, G55V, G56R, F57S
# VL: B1 VL
# B16: 9A2-VR23 (antibody, V domains shown)
# VH: B1 VH with N30E, H31W
# VL: B1 VL
# B17: 9A2-VR46 (antibody, V domains shown)
# VH: B1 VH with N30S, R33H, V34M, H35L, D101S, S102D, F103H, D105R, I106E
# VL: B1 VL
# B18: 9A2-VR37 (antibody, V domains shown)
# VH: B1 VH with N30S, R33H, V34M, H35L, R52S, S53G, G55M, G56W, F57S
# VL: B1 VL
# B19: 9A2-VR36 (antibody, V domains shown)
# VH: B1 VH with N30S, R33H, V34M, H35L, R52G, S53G, S54D, G55K, G56R, F57Q
# VL: B1 VL
# B20: 9A2-VR33 (antibody, V domains shown)
# VH: B1 VH with N30S, R33H, V34M, H35L, R52N, S53G, G56W, F57T
# VL: B1 VL
# B21: 9A2-VR48 (antibody, V domains shown)
# VH: B1 VH with N30S, R33H, V34M, H35L, D101S, S102D, F103H, D105K, I106P
# VL: B1 VL
# B22: 9A2-VR41 (antibody, V domains shown)
# VH: B1 VH with N30S, R33H, V34M, H35L, R52N, S53G, S54K, G56W, F57T
# VL: B1 VL
# B23: 9A2-VR35 (antibody, V domains shown)
# VH: B1 VH with N30S, R33H, V34M, H35L, R52N, S53G, S54F, G56R, F57N
# VL: B1 VL
# B24: 9A2-VR31 (antibody, V domains shown)
# VH: B1 VH with N30S, R33H, V34M, H35L, R52S, S53G, S54A, G55Q, G56W, F57S
# VL: B1 VL
# B25: 9A2-VR2 (antibody, V domains shown)
# VH: B1 VH with N30S, R33H, V34M, H35L
# VL: B1 VL with I29Q, S30R, S31P, W32F, L33V, A34S
# B26: 9A2-VR22 (antibody, V domains shown)
# VH: B1 VH with N30Q, H31W
# VL: B1 VL
# B27: 9A2-VR43 (antibody, V domains shown)
# VH: B1 VH with N30S, R33H, V34M, H35L, D101S, S102D, F103H
# VL: B1 VL
# B28: 9A2-VR3 (antibody, V domains shown)
# VH: B1 VH with N30S, R33H, V34M, H35L
# VL: B1 VL with I29L, S30R, S31P, W32F, L33V, A34N
# B29: 9A2-VR4 (antibody, V domains shown)
# VH: B1 VH with N30S, R33H, V34M, H35L
# VL: B1 VL with S30R, S31P, W32F, L33V, A34D
# B30: 9A2-VR50 (antibody, V domains shown)
# VH: B1 VH with N30S, R33H, V34M, H35L, D101S, S102D, F103H, D105A, I106P
# VL: B1 VL
# Target: T1, human CD131
# Assay: cell-based or functional assay
"IC50 GM-CSF, TF-1 proliferation [nM]","pStat5 IC50 GM-CSF, TF-1 bla reporter [nM]",Binder
79.3,,B1
5.7,,B2
4.9,8.5,B3
54.7,,B4
294,,B5
27.2,,B6
36.4,,B7
99.8,,B8
5,,B9
4.6,23.6,B10
23.4,,B11
184,,B12
47.9,,B13
88.7,,B14
31.2,,B15
60,24,B16
23.4,,B17
48.1,,B18
38.1,,B19
602,,B20
11.7,,B21
7,,B22
76,,B23
233,,B24
444,,B25
39.9,,B26
53.7,,B27
101,,B28
122,,B29
46.5,,B30
